Measured values taken from the supplement of paper PMC9112550, “Optimization of the antimicrobial peptide Bac7 by deep mutational scanning” (BMC Biology, 2022).

What follows are sequences tested on Escherichia coli TOP10 (assay: shrunken log2 fold change of peptide-encoding DNA abundance (4.5 h post-induction vs induction); higher = less antimicrobial activity (less host growth inhibition)). Conditions: time post-induction: 4.5 h; library: site-saturation at positions 5, 18, 19, 20.
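Also: peptides expressed intracellularly from a pBAD plasmid library in pooled LB shake-flask culture, induced with 0.3% L-arabinose, DNA abundance read by NGS, three biological replicates, DESeq2 with apeglm shrinkage.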

Sequence	shrunken log2 fold change
RRIRKRPPRLPRPRPRPPQDPRP	0.636
RRIRWRPPRLPRPRPRPIPDPRP	-0.0879
RRIRWRPPRLPRPRPRPKNAPRP	0.202
RRIRQRPPRLPRPRPRPFRNPRP	0.033
RRIRLRPPRLPRPRPRPFKQPRP	-0.0215
RRIRIRPPRLPRPRPRPCGVPRP	-0.153
RRIRSRPPRLPRPRPRPCMAPRP	-0.182
RRIRKRPPRLPRPRPRPESDPRP	0.262
RRIRGRPPRLPRPRPRPPIKPRP	0.403
RRIRNRPPRLPRPRPRPCNMPRP	-0.0735
RRIRTRPPRLPRPRPRPQHRPRP	-0.0713
RRIRCRPPRLPRPRPRPNLMPRP	-0.323
RRIRHRPPRLPRPRPRPDQPPRP	0.183
RRIRRRPPRLPRPRPRPDNQPRP	0.0853
RRIRTRPPRLPRPRPRPGSAPRP	0.362
RRIRVRPPRLPRPRPRPPLSPRP	0.106
RRIRSRPPRLPRPRPRPKAKPRP	0.626
RRIRTRPPRLPRPRPRPNVVPRP	-0.0363
RRIRPRPPRLPRPRPRPTKAPRP	-0.191
RRIRCRPPRLPRPRPRPRQGPRP	0.436
RRIRSRPPRLPRPRPRPAHDPRP	0.162
RRIRRRPPRLPRPRPRPLIAPRP	0.294
RRIRNRPPRLPRPRPRPYAHPRP	-0.176
RRIRNRPPRLPRPRPRPYSLPRP	-0.965
RRIRGRPPRLPRPRPRPINVPRP	-0.248

Sequence	shrunken log2 fold change
RRIRNRPPRLPRPRPRPFRDPRP	0.0452
RRIRYRPPRLPRPRPRPPMSPRP	-0.612
RRIRWRPPRLPRPRPRPRTVPRP	0.0512
RRIRWRPPRLPRPRPRPCWMPRP	0.0693
RRIRFRPPRLPRPRPRPGDPPRP	0.566
RRIRSRPPRLPRPRPRPMKDPRP	-0.157
RRIRFRPPRLPRPRPRPKNMPRP	-0.724
RRIRVRPPRLPRPRPRPDTEPRP	0.0532
RRIRKRPPRLPRPRPRPCCWPRP	1.1
RRIRERPPRLPRPRPRPTFYPRP	-0.18
RRIRVRPPRLPRPRPRPWNTPRP	-0.878
RRIRRRPPRLPRPRPRPSEIPRP	0.0269
RRIRYRPPRLPRPRPRPIVGPRP	0.1
RRIRSRPPRLPRPRPRPCWMPRP	-0.0635
RRIRSRPPRLPRPRPRPETDPRP	0.392
RRIRMRPPRLPRPRPRPMNAPRP	-0.0277
RRIRYRPPRLPRPRPRPEQSPRP	0.0157
RRIRQRPPRLPRPRPRPKKDPRP	-0.184
RRIRWRPPRLPRPRPRPHFAPRP	0.046
RRIRMRPPRLPRPRPRPCEQPRP	0.195
RRIRRRPPRLPRPRPRPEYHPRP	0.311
RRIRWRPPRLPRPRPRPFQKPRP	0.0262
RRIRARPPRLPRPRPRPWCNPRP	-0.536
RRIRHRPPRLPRPRPRPNPIPRP	-0.023
RRIRHRPPRLPRPRPRPRRPPRP	0.385

Sequence	shrunken log2 fold change
RRIRTRPPRLPRPRPRPSRFPRP	0.244
RRIRIRPPRLPRPRPRPWQSPRP	-0.0531
RRIRARPPRLPRPRPRPGHCPRP	0.0986
RRIRYRPPRLPRPRPRPQWKPRP	-0.01
RRIRERPPRLPRPRPRPLRCPRP	0.187
RRIRSRPPRLPRPRPRPRYYPRP	-0.554
RRIRWRPPRLPRPRPRPETLPRP	0.0224
RRIRLRPPRLPRPRPRPYAIPRP	-0.233
RRIRHRPPRLPRPRPRPHCKPRP	-0.0178
RRIRHRPPRLPRPRPRPLPIPRP	-0.598
RRIRYRPPRLPRPRPRPFDNPRP	0.0112
RRIRGRPPRLPRPRPRPYRGPRP	-0.186
RRIRVRPPRLPRPRPRPNQVPRP	-0.185
RRIRQRPPRLPRPRPRPMVYPRP	0.017
RRIRMRPPRLPRPRPRPPYPPRP	0.134
RRIRVRPPRLPRPRPRPIWMPRP	-0.0796
RRIRRRPPRLPRPRPRPNKDPRP	0.202
RRIRCRPPRLPRPRPRPYFYPRP	-1
RRIRCRPPRLPRPRPRPATPPRP	1.34
RRIRWRPPRLPRPRPRPCRAPRP	0.217
RRIRGRPPRLPRPRPRPCEMPRP	0.852
RRIRERPPRLPRPRPRPGNSPRP	-0.115
RRIRFRPPRLPRPRPRPGLNPRP	0.207
RRIRGRPPRLPRPRPRPMPYPRP	0.0877
RRIRQRPPRLPRPRPRPSFHPRP	-0.351

Sequence	shrunken log2 fold change
RRIRHRPPRLPRPRPRPRWQPRP	0.176
RRIRCRPPRLPRPRPRPDVWPRP	0.198
RRIRSRPPRLPRPRPRPVLRPRP	0.0904
RRIRHRPPRLPRPRPRPCWFPRP	-0.499
RRIRPRPPRLPRPRPRPMTGPRP	-0.239
RRIRKRPPRLPRPRPRPMSAPRP	0.0584
RRIRGRPPRLPRPRPRPEHIPRP	0.19
RRIRHRPPRLPRPRPRPISFPRP	-0.281
RRIRIRPPRLPRPRPRPRGLPRP	-0.272
RRIRNRPPRLPRPRPRPQMPPRP	-0.334
RRIRFRPPRLPRPRPRPIAQPRP	-0.0298
RRIRQRPPRLPRPRPRPFAGPRP	0.0242
RRIRIRPPRLPRPRPRPINYPRP	-0.379
RRIRHRPPRLPRPRPRPSCDPRP	-0.336
RRIRMRPPRLPRPRPRPDDPPRP	1.6
RRIRARPPRLPRPRPRPNDYPRP	-0.471
RRIRDRPPRLPRPRPRPCTWPRP	0.0101
RRIRARPPRLPRPRPRPCFEPRP	0.438
RRIRPRPPRLPRPRPRPGYIPRP	-0.553
RRIRDRPPRLPRPRPRPGKMPRP	0.0346
RRIRNRPPRLPRPRPRPDMNPRP	-0.0522
RRIRVRPPRLPRPRPRPGPSPRP	0.201
RRIRHRPPRLPRPRPRPVKRPRP	-0.226
RRIRERPPRLPRPRPRPAMYPRP	-0.205
RRIRNRPPRLPRPRPRPVYPPRP	-0.341

Sequence	shrunken log2 fold change
RRIRARPPRLPRPRPRPEMSPRP	0.116
RRIRCRPPRLPRPRPRPEVWPRP	0.725
RRIRVRPPRLPRPRPRPNEDPRP	-0.168
RRIRPRPPRLPRPRPRPRFWPRP	0.579
RRIRSRPPRLPRPRPRPSYMPRP	-1.1
RRIRPRPPRLPRPRPRPALYPRP	-0.0126
RRIRLRPPRLPRPRPRPFMWPRP	-0.121
RRIRARPPRLPRPRPRPWYAPRP	-0.307
RRIRFRPPRLPRPRPRPKRCPRP	0.383
RRIRARPPRLPRPRPRPMEQPRP	0.0309
RRIRLRPPRLPRPRPRPYQKPRP	0.00934
RRIRGRPPRLPRPRPRPEANPRP	0.632
RRIRVRPPRLPRPRPRPYVGPRP	-0.0869
RRIRARPPRLPRPRPRPCQCPRP	0.0726
RRIRRRPPRLPRPRPRPLMFPRP	0.0336
RRIRPRPPRLPRPRPRPLSGPRP	0.0234
RRIRTRPPRLPRPRPRPNHTPRP	-0.312
RRIRGRPPRLPRPRPRPKMPPRP	0.434
RRIRFRPPRLPRPRPRPWGGPRP	0.162
RRIRTRPPRLPRPRPRPMNIPRP	-0.259
RRIRGRPPRLPRPRPRPGKWPRP	0.566
RRIRVRPPRLPRPRPRPVRVPRP	0.905
RRIRVRPPRLPRPRPRPYNKPRP	-0.707
RRIRDRPPRLPRPRPRPYMIPRP	-0.587
RRIRARPPRLPRPRPRPNPDPRP	0.571

Sequence	shrunken log2 fold change
RRIRKRPPRLPRPRPRPMKHPRP	-0.156
RRIRHRPPRLPRPRPRPNLQPRP	-0.0526
RRIRYRPPRLPRPRPRPILTPRP	-1.08
RRIRPRPPRLPRPRPRPVMPPRP	0.188
RRIRHRPPRLPRPRPRPNREPRP	-0.107
RRIRCRPPRLPRPRPRPMVPPRP	-0.354
RRIRSRPPRLPRPRPRPLQVPRP	-0.157
RRIRDRPPRLPRPRPRPDPKPRP	0.189
RRIRQRPPRLPRPRPRPLQMPRP	0.122
RRIRMRPPRLPRPRPRPEKIPRP	0.856
RRIRKRPPRLPRPRPRPMENPRP	0.0428
RRIRYRPPRLPRPRPRPEDVPRP	-0.00968
RRIRHRPPRLPRPRPRPEPDPRP	0.257
RRIRIRPPRLPRPRPRPMSPPRP	0.111
RRIRLRPPRLPRPRPRPCVAPRP	0.238
RRIRMRPPRLPRPRPRPTLKPRP	0.501
RRIRFRPPRLPRPRPRPLATPRP	-0.00506
RRIRRRPPRLPRPRPRPKLGPRP	0.141
RRIRMRPPRLPRPRPRPYFHPRP	-0.614
RRIRPRPPRLPRPRPRPADFPRP	-0.00303
RRIRGRPPRLPRPRPRPASVPRP	0.454
RRIRWRPPRLPRPRPRPQIYPRP	-0.000758
RRIRWRPPRLPRPRPRPLEMPRP	0.373
RRIRCRPPRLPRPRPRPWVYPRP	-0.0957
RRIRERPPRLPRPRPRPMCLPRP	-0.38
